Experimental data from patent US10005829B2, “Synthetic linear apelin mimetics for the treatment of heart failure” (priority 2012, dated 2018).
[ ]: non-standard residue; d: D form. pGlu = O=C1CC[C@@H](C(=O)O)N1; dNle = CCCC[C@@H](N)C(=O)O; dNva = CCC[C@@H](N)C(=O)O; Nle = CCCC[C@H](N)C(=O)O; Aib = CC(C)(N)C(=O)O

T1: APJ receptor (human, UniProt P35414 1-380)
T1 sequence (looked up): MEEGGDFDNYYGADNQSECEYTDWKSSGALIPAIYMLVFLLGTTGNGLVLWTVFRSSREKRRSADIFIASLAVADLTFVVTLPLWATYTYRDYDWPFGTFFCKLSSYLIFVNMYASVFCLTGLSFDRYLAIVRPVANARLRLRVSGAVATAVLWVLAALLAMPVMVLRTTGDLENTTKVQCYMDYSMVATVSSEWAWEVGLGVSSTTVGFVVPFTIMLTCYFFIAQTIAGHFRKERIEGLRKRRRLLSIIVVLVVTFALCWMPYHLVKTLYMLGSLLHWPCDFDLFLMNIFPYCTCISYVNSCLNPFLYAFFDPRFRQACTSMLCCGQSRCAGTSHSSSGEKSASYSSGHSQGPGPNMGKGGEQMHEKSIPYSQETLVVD

B1: pE-R-P-R-Y-a-H-K-G-P-nle-a-f-OH (peptide)
peptide: [pGlu]RPRY[dA]HKGP[dNle][dA][dF]-OH
SMILES: CCCC[C@@H](NC(=O)[C@@H]1CCCN1C(=O)CNC(=O)[C@H](CCCCN)NC(=O)[C@H](Cc1c[nH]cn1)NC(=O)[C@@H](C)NC(=O)[C@H](Cc1ccc(O)cc1)NC(=O)[C@H](CCCNC(=N)N)NC(=O)[C@@H]1CCCN1C(=O)[C@H](CCCNC(=N)N)NC(=O)[C@@H]1CCC(=O)N1)C(=O)N[C@H](C)C(=O)N[C@H](Cc1ccccc1)C(=O)O
B2: pE-R-P-R-L-S-Aib-K-G-P-nle-a-F-OH (peptide)
peptide: [pGlu]RPRLS[Aib]KGP[dNle][dA]F-OH
SMILES: CCCC[C@@H](NC(=O)[C@@H]1CCCN1C(=O)CNC(=O)[C@H](CCCCN)NC(=O)C(C)(C)NC(=O)[C@H](CO)NC(=O)[C@H](CC(C)C)NC(=O)[C@H](CCCNC(=N)N)NC(=O)[C@@H]1CCCN1C(=O)[C@H](CCCNC(=N)N)NC(=O)[C@@H]1CCC(=O)N1)C(=O)N[C@H](C)C(=O)N[C@@H](Cc1ccccc1)C(=O)O
B3: pE-R-P-R-L-S-Aib-K-G-P-Nle-a-f-OH (peptide)
peptide: [pGlu]RPRLS[Aib]KGP[Nle][dA][dF]-OH
SMILES: CCCC[C@H](NC(=O)[C@@H]1CCCN1C(=O)CNC(=O)[C@H](CCCCN)NC(=O)C(C)(C)NC(=O)[C@H](CO)NC(=O)[C@H](CC(C)C)NC(=O)[C@H](CCCNC(=N)N)NC(=O)[C@@H]1CCCN1C(=O)[C@H](CCCNC(=N)N)NC(=O)[C@@H]1CCC(=O)N1)C(=O)N[C@H](C)C(=O)N[C@H](Cc1ccccc1)C(=O)O
B4: pE-R-P-R-(D-Leu)-S-Aib-K-G-P-nle-a-f-OH (peptide)
peptide: [pGlu]RPR[dL]S[Aib]KGP[dNle][dA][dF]-OH
SMILES: CCCC[C@@H](NC(=O)[C@@H]1CCCN1C(=O)CNC(=O)[C@H](CCCCN)NC(=O)C(C)(C)NC(=O)[C@H](CO)NC(=O)[C@@H](CC(C)C)NC(=O)[C@H](CCCNC(=N)N)NC(=O)[C@@H]1CCCN1C(=O)[C@H](CCCNC(=N)N)NC(=O)[C@@H]1CCC(=O)N1)C(=O)N[C@H](C)C(=O)N[C@H](Cc1ccccc1)C(=O)O
B5: pE-R-P-R-L-S-Aib-K-G-P-nle-a-f-OH (peptide)
peptide: [pGlu]RPRLS[Aib]KGP[dNle][dA][dF]-OH
SMILES: CCCC[C@@H](NC(=O)[C@@H]1CCCN1C(=O)CNC(=O)[C@H](CCCCN)NC(=O)C(C)(C)NC(=O)[C@H](CO)NC(=O)[C@H](CC(C)C)NC(=O)[C@H](CCCNC(=N)N)NC(=O)[C@@H]1CCCN1C(=O)[C@H](CCCNC(=N)N)NC(=O)[C@@H]1CCC(=O)N1)C(=O)N[C@H](C)C(=O)N[C@H](Cc1ccccc1)C(=O)O
B6: pE-R-P-R-L-S-Aib-K-G-P-Nle-a-F-OH (peptide)
peptide: [pGlu]RPRLS[Aib]KGP[Nle][dA]F-OH
SMILES: CCCC[C@H](NC(=O)[C@@H]1CCCN1C(=O)CNC(=O)[C@H](CCCCN)NC(=O)C(C)(C)NC(=O)[C@H](CO)NC(=O)[C@H](CC(C)C)NC(=O)[C@H](CCCNC(=N)N)NC(=O)[C@@H]1CCCN1C(=O)[C@H](CCCNC(=N)N)NC(=O)[C@@H]1CCC(=O)N1)C(=O)N[C@H](C)C(=O)N[C@@H](Cc1ccccc1)C(=O)O
B7: pE-R-P-R-L-a-f-K-G-P-nle-a-f-OH (peptide)
peptide: [pGlu]RPRL[dA][dF]KGP[dNle][dA][dF]-OH
SMILES: CCCC[C@@H](NC(=O)[C@@H]1CCCN1C(=O)CNC(=O)[C@H](CCCCN)NC(=O)[C@@H](Cc1ccccc1)NC(=O)[C@@H](C)NC(=O)[C@H](CC(C)C)NC(=O)[C@H](CCCNC(=N)N)NC(=O)[C@@H]1CCCN1C(=O)[C@H](CCCNC(=N)N)NC(=O)[C@@H]1CCC(=O)N1)C(=O)N[C@H](C)C(=O)N[C@H](Cc1ccccc1)C(=O)O
B8: pE-R-P-R-L-a-L-K-G-P-nle-a-f-OH (peptide)
peptide: [pGlu]RPRL[dA]LKGP[dNle][dA][dF]-OH
SMILES: CCCC[C@@H](NC(=O)[C@@H]1CCCN1C(=O)CNC(=O)[C@H](CCCCN)NC(=O)[C@H](CC(C)C)NC(=O)[C@@H](C)NC(=O)[C@H](CC(C)C)NC(=O)[C@H](CCCNC(=N)N)NC(=O)[C@@H]1CCCN1C(=O)[C@H](CCCNC(=N)N)NC(=O)[C@@H]1CCC(=O)N1)C(=O)N[C@H](C)C(=O)N[C@H](Cc1ccccc1)C(=O)O
B9: pE-R-P-R-L-a-a-K-G-P-nle-a-f-OH (peptide)
peptide: [pGlu]RPRL[dA][dA]KGP[dNle][dA][dF]-OH
SMILES: CCCC[C@@H](NC(=O)[C@@H]1CCCN1C(=O)CNC(=O)[C@H](CCCCN)NC(=O)[C@@H](C)NC(=O)[C@@H](C)NC(=O)[C@H](CC(C)C)NC(=O)[C@H](CCCNC(=N)N)NC(=O)[C@@H]1CCCN1C(=O)[C@H](CCCNC(=N)N)NC(=O)[C@@H]1CCC(=O)N1)C(=O)N[C@H](C)C(=O)N[C@H](Cc1ccccc1)C(=O)O
B10: pE-R-a-R-L-a-H-K-G-P-nle-a-f-OH (peptide)
peptide: [pGlu]R[dA]RL[dA]HKGP[dNle][dA][dF]-OH
SMILES: CCCC[C@@H](NC(=O)[C@@H]1CCCN1C(=O)CNC(=O)[C@H](CCCCN)NC(=O)[C@H](Cc1c[nH]cn1)NC(=O)[C@@H](C)NC(=O)[C@H](CC(C)C)NC(=O)[C@H](CCCNC(=N)N)NC(=O)[C@@H](C)NC(=O)[C@H](CCCNC(=N)N)NC(=O)[C@@H]1CCC(=O)N1)C(=O)N[C@H](C)C(=O)N[C@H](Cc1ccccc1)C(=O)O
B11: pE-R-P-R-L-S-Aib-k-G-P-nle-a-f-OH (peptide)
peptide: [pGlu]RPRLS[Aib][dK]GP[dNle][dA][dF]-OH
SMILES: CCCC[C@@H](NC(=O)[C@@H]1CCCN1C(=O)CNC(=O)[C@@H](CCCCN)NC(=O)C(C)(C)NC(=O)[C@H](CO)NC(=O)[C@H](CC(C)C)NC(=O)[C@H](CCCNC(=N)N)NC(=O)[C@@H]1CCCN1C(=O)[C@H](CCCNC(=N)N)NC(=O)[C@@H]1CCC(=O)N1)C(=O)N[C@H](C)C(=O)N[C@H](Cc1ccccc1)C(=O)O
B12: H-R-P-R-L-a-H-K-G-P-nle-f-OH (peptide)
peptide: H-RPRL[dA]HKGP[dNle][dF]-OH
SMILES: CCCC[C@@H](NC(=O)[C@@H]1CCCN1C(=O)CNC(=O)[C@H](CCCCN)NC(=O)[C@H](Cc1c[nH]cn1)NC(=O)[C@@H](C)NC(=O)[C@H](CC(C)C)NC(=O)[C@H](CCCNC(=N)N)NC(=O)[C@@H]1CCCN1C(=O)[C@@H](N)CCCNC(=N)N)C(=O)N[C@H](Cc1ccccc1)C(=O)O
B13: pE-R-P-R-L-S-a-K-G-P-nle-a-f-OH (peptide)
peptide: [pGlu]RPRLS[dA]KGP[dNle][dA][dF]-OH
SMILES: CCCC[C@@H](NC(=O)[C@@H]1CCCN1C(=O)CNC(=O)[C@H](CCCCN)NC(=O)[C@@H](C)NC(=O)[C@H](CO)NC(=O)[C@H](CC(C)C)NC(=O)[C@H](CCCNC(=N)N)NC(=O)[C@@H]1CCCN1C(=O)[C@H](CCCNC(=N)N)NC(=O)[C@@H]1CCC(=O)N1)C(=O)N[C@H](C)C(=O)N[C@H](Cc1ccccc1)C(=O)O
B14: pE-R-P-R-L-nva-H-K-G-P-nle-a-f-OH (peptide)
peptide: [pGlu]RPRL[dNva]HKGP[dNle][dA][dF]-OH
SMILES: CCCC[C@@H](NC(=O)[C@@H]1CCCN1C(=O)CNC(=O)[C@H](CCCCN)NC(=O)[C@H](Cc1c[nH]cn1)NC(=O)[C@@H](CCC)NC(=O)[C@H](CC(C)C)NC(=O)[C@H](CCCNC(=N)N)NC(=O)[C@@H]1CCCN1C(=O)[C@H](CCCNC(=N)N)NC(=O)[C@@H]1CCC(=O)N1)C(=O)N[C@H](C)C(=O)N[C@H](Cc1ccccc1)C(=O)O
B15: pE-R-P-R-L-a-H-K-G-P-nva-a-f-OH (peptide)
peptide: [pGlu]RPRL[dA]HKGP[dNva][dA][dF]-OH
SMILES: CCC[C@@H](NC(=O)[C@@H]1CCCN1C(=O)CNC(=O)[C@H](CCCCN)NC(=O)[C@H](Cc1c[nH]cn1)NC(=O)[C@@H](C)NC(=O)[C@H](CC(C)C)NC(=O)[C@H](CCCNC(=N)N)NC(=O)[C@@H]1CCCN1C(=O)[C@H](CCCNC(=N)N)NC(=O)[C@@H]1CCC(=O)N1)C(=O)N[C@H](C)C(=O)N[C@H](Cc1ccccc1)C(=O)O

Biological target: T1, APJ receptor
Assay: cell-based or functional assay

Binder	hAPJ Ca^2+ Flux EC50
B1	114 nM
[pGlu][dR]PRL[dA]HKGP[dNle][dA][dF]-OH [pE-r-P-R-L-a-H-K-G-P-nle-a-f-OH]	796 nM
[pGlu]RPRL[dA]HKGP[Nle][dA][dF]-OH [pE-R-P-R-L-a-H-K-G-P-Nle-a-f-OH]	2.4 nM
[pGlu]RPRL[dA]H[dK]GP[Nle][dA][dF]-OH [pE-R-P-R-L-a-H-k-G-P-Nle-a-f-OH]	99 nM
[pGlu]RPRL[dA]HKGP[dNle][dA][dF]-NH2 [pE-R-P-R-L-a-H-K-G-P-nle-a-f-NH2]	14.8 nM
ERPRLAHKGPLPF (pE at 1; D-Ala at 6; Nle (L-norleucine) at 11; D-Phe at 13) [pE-R-P-R-L-a-H-K-G-P-Nle-P-f-OH]	34.5 nM
ERPRLAHKGPLF (pE at 1; D-Ala at 6; Nle (L-norleucine) at 11; D-Phe at 12) [pE-R-P-R-L-a-H-K-G-P-Nle-f-OH]	10.7 nM
ERPRLAHKGPLA (pE at 1; D-Ala at 6; D-Nle at 11; D-Ala at 12; C-terminal NH(Phenethyl) amide) [pE-R-P-R-L-a-H-K-G-P-nle-a-NH(Phenethyl)]	16.2 nM
B2	3.9 nM
B3	3.3 nM
[pGlu]RPRL[dA]HKGP[Nle][dA]F-OH [pE-R-P-R-L-a-H-K-G-P-Nle-a-F-OH]	4.5 nM
B4	5 nM
B5	2 nM
ERPRLSXKGPLPF (pE at 1; Aib at 7; Nle (L-norleucine) at 11; D-Phe at 13) [pE-R-P-R-L-S-Aib-K-G-P-Nle-P-f-OH]	4.5 nM
B6	2.4 nM
ERPRLXHKGPLAF (pE at 1; D-Abu at 6; D-Nle at 11; D-Ala at 12; D-Phe at 13) [pE-R-P-R-L-abu-H-K-G-P-nle-a-f-OH]	3 nM
ERPRLAHKGPLXF (pE at 1; D-Ala at 6; D-Nle at 11; D-Abu at 12; D-Phe at 13) [pE-R-P-R-L-a-H-K-G-P-nle-abu-f-OH]	2.4 nM
B7	9.2 nM
B8	4.4 nM
B9	16.1 nM
B10	623 nM
B11	79.9 nM
B12	1.4 nM
B13	8.5 nM
B14	19.5 nM
B15	8.7 nM
